Experimental data reported in the supplement of paper PMC12764529.
± gives the half width of the 95% confidence interval.

Columns and labels:
[1] = folding stability dG unfold from chymotrypsin proteolysis; higher = more stable
Method in brief: (§1)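 How resistant each design was to proteolysis was captured as K50, inferred by Bayesian fitting of sequencing counts. Unfolding free energy was then derived relative to a sequence-predicted unfolded-state K50 and a shared folded-state K50, per protease or combined. Digestion used trypsin and chymotrypsin at 11 threefold-diluted concentrations plus a no-protease condition, on mini-proteins under 80 residues without cysteine in a PA-tagged cDNA display construct. Designs were kept only when AlphaFold2 dimer inter-PAE was above 15.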

[2] = folding stability dG unfold (combined trypsin and chymotrypsin); higher = more stable
Method in brief: as §1

[3] = folding stability dG unfold from trypsin proteolysis; higher = more stable
Method in brief: as §1

Sequence	folding stability dG unfold [1] [kcal/mol]	folding stability dG unfold [2] [kcal/mol]	folding stability dG unfold [3] [kcal/mol]
SAGGDPVRIFIMSGNGIFPIEIPLDPGEKVEFEMKFNGQEVTITITPGDGEIEIEMPPGFNIMALEPSAGGS [r16_761_TrROS]	2.05 ± 0.038	1.89 ± 0.11	1.59 ± 0.086
SAGGDVTISIMIFVWPGWTEEQYKEMAKEVAKTIARQLAQKNPDLNENIDIEDIEVTIIPMEGDPDYFSAGG [r13_128_TrROS]	1.35 ± 0.1	1.68 ± 0.19	1.91 ± 0.049
SAGGEAEVVARAEVTLPDGVKVEVEVVRVDGKLVVRVRVEVRLPPPPPPPPPPLPPLSEEERKKLAEASAGG [r13_760_TrROS_Hall]	2.09 ± 0.16	2.18 ± 0.22	2.09 ± 0.091
SAGGEAEVVEPEEKLEIVDKETGKKITVYKVKNKETGEEVVLVEIEKNGKKYTVLMTKDELEALLKKSAGGS [r16_603_TrROS_Hall]	3.29 ± 0.057	2.98 ± 0.28	2.38 ± 0.21
SAGGEEEAVEKPFYQLPEKKPLKTVPMSREEALALARENPDLGILYAEEDGKLWKVDAETGTIEPLGSAGGS [r16_214_JUSTAS]	1.58 ± 0.11	1.46 ± 0.14	1.23 ± 0.043
SAGGEEEEFEVVAEIEIEVDGKTYTITIVRDKETDEYRVEIRNKETGETKTITVSAEELEELLKALSSAGGS [r8_469_TrROS_Hall]	4.77 ± 0.32	4.77 ± 0.52	3.17 ± 0.36
SAGGEEVVEEPPPPEVEVIEIRDAETDRTVTLVYNKDTGKLFLFDEDTGLVYEFDVDGRLVRVERLPPSAGG [r13_101_TrROS_Hall]	4.48 ± 0.1	4.16 ± 0.39	2.95 ± 0.26
SAGGEEVVVERPPAPPPITVTIEYDEETNTVTVTVTLPNGETLTITVEAPSLEEAEAAARELLEALSSAGGS [r16_319_TrROS_Hall]	2.96 ± 0.37	2.93 ± 0.31	2.66 ± 0.28
SAGGEFEVEELPPGGLLLVTFRAPADLPLEIPLEFTSPDGSPVEVAEYEREPFGDYVLITVLVRVPDSAGGS [r16_499_TrMRF]	2.77 ± 0.16	2.73 ± 0.18	2.25 ± 0.16
SAGGEFEVYRVKSPDSVVTVTVLPDRVVVNLTDEKNPKVVPIPYPPGHPPTLEDVLALLKSLGFKVEPSAGG [r13_687_TrMRF]	1.65 ± 0.043	1.79 ± 0.041	1.85 ± 0.033
SAGGEFLEKVIEAAIEAAKAGPDAKLELTIPVPGGPVKVTIEVGEDGKVKVTIYKGDKKILEIELPLSAGGS [r16_611_TrMRF]	4.62 ± 0.34	> 6	3.85 ± 0.35
SAGGEFRITFMVPADPNDPAVELAKWIADEFMPPGWKVEVDIKVVPSPDGYYMIDIPVEIMPPGQPISAGGS [r16_128_TrROS]	2.81 ± 0.047	2.49 ± 0.18	1.71 ± 0.14
SAGGEIAKRFAKYARDAGYDVRVDVEIIPPDEFPGLKPGKPYVIKVEIEVTPPNGPRRPLGEFTIMINSAGG [r13_874_TrROS]	3.18 ± 0.046	2.82 ± 0.08	2.13 ± 0.06
SAGGEIEILLEDGTLLRIRVELDEDGNLRVTVELFRLEPPPAPEVVVERREEREERRVLFADSAEDLSAGGS [r16_802_TrROS_Hall]	2.27 ± 0.1	1.75 ± 0.15	0.941 ± 0.06
SAGGEIPPNAKIDELEISPGSGYIRIKVEFYDPDGKPIWKMTITIPIKPVPRPSPEDQKEQNKKNKKSAGGS [r16_697_TrROS]	2.68 ± 0.12	2.39 ± 0.67	1.36 ± 0.18
SAGGEKDLYLVKYRVEIKNDKGEKKEFPVTAIATSLEELEETLKALTPKNAEAKVEILEVKPLKEVLSSAGG [r13_513_TrMRF]	1.55 ± 0.038	1.72 ± 0.1	1.86 ± 0.091
SAGGEKVKLRIYVYRRTVERDPATGELRERYELVEEIEIEVEPGETLEDILAKLKLPPGWRIVRVERESAGG [r13_716_TrROS_Hall]	5.424 ± 0.053	5.24 ± 0.076	4.39 ± 0.091
SAGGEKVKRVLVRDKKTKEWREVEVKEAKVEPPPVITIKIELSEEEAKKLAELLRKLFPDAKVTVVKSAGGS [r8_437_TrROS_Hall]	3.82 ± 0.24	3.98 ± 0.31	4.15 ± 0.35
SAGGEMELTLTVTIKVENLTKEQIEEELRKLLEELGFEIEEITVEYDEENKTITVTVRIRLPPLEDLSAGGS [r16_287_TrROS_Hall]	2.98 ± 0.23	3.15 ± 0.25	3.15 ± 0.27
SAGGEMVEIVVKFKTKEELEAAIRAALPPGATVEVTVEEKDGELYLTITVPKENAERLREALKKALESAGGS [r16_43_TrROS_Hall]	4.48 ± 0.13	4.57 ± 0.28	4.2 ± 0.28
SAGGENYTFEMEITIPIPLPNPNGKLKKLPIKVPIEYEYDDPAQRNQAMQNMIMRIIDLALKELGVPSAGGS [r16_339_TrROS]	2.12 ± 0.04	1.9 ± 0.16	1.46 ± 0.048

Sequence	folding stability dG unfold [1] [kcal/mol]	folding stability dG unfold [2] [kcal/mol]	folding stability dG unfold [3] [kcal/mol]
SAGGESYPFIGRNPETNALIEVTVTKLESGEYLVNATITNPNGETVEFPFTFPANSLTPESEIDVTITSAGG [r13_959_TrMRF]	1.21 ± 0.074	1.44 ± 0.054	1.65 ± 0.051
SAGGETKTFTIDEIRAKLKEALDNGIDEVRITVFRDGKEEEITIPASKLDEIIASLPPDATVRIERVSAGGS [r16_636_TrROS_Hall]	1.86 ± 0.11	1.97 ± 0.13	2.02 ± 0.042
SAGGETVTTESYQPLPTGPGLSFKNVVTTEEDVNNPGVKYTTTEVTAELVNPEGDESTTTTSTVTAASAGGS [r16_217_JUSTAS]	0.00547 ± 0.22	0.112 ± 0.14	0.0281 ± 0.035
SAGGEVKYEHEGKNPDNGNMYKQEQEVPPVPIPPVIVIPAEDLDEFRELGIPENFKILPGNGWIVITSAGGS [r16_194_TrROS]	0.154 ± 0.25	0.425 ± 0.13	0.44 ± 0.091
SAGGEVRLRLEAELLPDGTLVLRGRVEVRVGDRVFEFEFELVLRLEPVPPPPAPARPLLIPERLLDASAGGS [r8_269_TrMRF]	2.4 ± 0.065	2.13 ± 0.12	1.47 ± 0.098
SAGGEWHEISIKFPNPEEIEEALREAFPPGMDVDPDVEPNPNGWEVEIEVPRNNPDRVQNAIKEALDSAGGS [r16_43_TrROS]	0.469 ± 0.031	0.492 ± 0.11	0.452 ± 0.035
SAGGEWRKITVPIKYRFPPGESIDSIANELANLPGLKVEVNVEYEKDPDGRYYMEIPVEIEIPPGAPISAGG [r13_590_TrROS]	0.669 ± 0.16	0.576 ± 0.12	0.341 ± 0.074
SAGGFEEKVKAGEEVVDVVAPITLPDGTEAVVTRVEPVDDGLLVTLRPPWTGEEVELPLPASEIPKLPSAGG [r13_340_JUSTAS]	1.21 ± 0.056	1.11 ± 0.077	1.1 ± 0.057
SAGGFEFKAVKLKKNEEKEGELGGAKVRYVSDNKGPVYQVVEFGPEYRALAKVEGDKVELVAVEEGNPSAGG [r13_92_TrMRF]	0.00343 ± 0.21	-0.21 ± 0.16	-1.02 ± 0.66
SAGGFGIKIDEFDPDGEFRISIYDPDTWQPIAEFRIKIKPVPPPPPVEKRPYKDDDGEPKTVTHPDDQSAGG [r13_9_TrROS]	1.73 ± 0.19	1.43 ± 0.2	0.542 ± 0.12
SAGGFIRIETPNGKKISPEVREEAEEAIRDGDWDDAVKKISDWLRERFGHPMPIKIEVMMPPPKPPKSAGGS [r8_48_TrROS]	1.19 ± 0.11	0.995 ± 0.18	0.547 ± 0.061
SAGGFKIEIEKNPEPDGIVIVIEYDMPPKGIKDFIEELFGPNPKDVTTEEHPNGRTEVTFRIPPGAPSAGGS [r16_605_TrROS]	0.33 ± 0.34	0.268 ± 0.3	-0.426 ± 0.43
SAGGFTIEFPLPPGESPDEIKDEIMDMVRPIADEHGFKNVKIPITNVRWQPPGRRRFTINIEIKFPGSAGGS [r8_184_TrROS]	0.465 ± 0.24	0.727 ± 0.22	0.723 ± 0.16
SAGGGADVISAYDPETVEELSKLPWVTSVTYDPETGRYDIRFERPDGQYNYVVDNVTKEVLEVSPVDSAGGS [r8_251_TrMRF]	1.29 ± 0.053	1.3 ± 0.1	1.03 ± 0.07
SAGGGALVLPDPDVPDDLPLVVVDPENGTVTLLHFDRETGRVRARVVRLGDGVPEEEEAVFPVAPDALSAGG [r13_851_TrMRF]	-0.261 ± 0.18	0.078 ± 0.11	0.242 ± 0.11
SAGGGDLEVELVEEREFTFPDGLRRRLLVVRFPDGFLAIPVYVRPPGGGWRLLARFVLRIGPPRPEEGSAGG [r13_494_TrMRF]	4.29 ± 0.043	3.82 ± 0.08	3.22 ± 0.054
SAGGGDWYKVTVKVDGNPEVAEALVEKLLEEVGEEVVFEPRPGEQTVTFYVPKELLPLLEELGIEVEPSAGG [r13_156_TrMRF]	2.632 ± 0.02	2.56 ± 0.13	2.24 ± 0.11
SAGGGEKWKIKFKDAEAYINAPEGKVEIVPPDGSKITIDFPPDIPPEVVAKLLAEELGFDEAEIEPVESAGG [r13_852_TrMRF]	0.357 ± 0.13	0.168 ± 0.14	-0.263 ± 0.085
SAGGGEYYAIVRIEVKDPESEETSELELVIPVEGLSEEEALEIARAIAETFPKENVKAEVEIVPRELSAGGS [r16_774_TrMRF]	0.896 ± 0.16	0.936 ± 0.11	1.05 ± 0.043
SAGGGFDPSKLKKEKTLTLTLPGNSETFTIELYLPEDGESTVVFSYNDKNYELTITKDSITLKPVSSSAGGS [r16_711_JUSTAS]	3.01 ± 0.045	2.79 ± 0.2	2.38 ± 0.13
SAGGGIVIPVPAETARELLEKLAPDGADVTVESLGSLGGGEVYRATFTDPVFGNTVDIEVLVGPEGGSAGGS [r16_486_TrMRF]	0.301 ± 0.13	0.437 ± 0.096	0.392 ± 0.028
